# Results reported in PMC7406681, “Structural characterization of the C-terminal domain of SARS-CoV-2 nucleocapsid protein”.
# B1: 17-bp dsDNA (DNA mimic of SL3/TRS RNA) (dsDNA)
# DNA 1: TGTTCTCTAAACGAACT
# DNA 2: AGTTCGTTTAGAGAACA
# Tests used:
# [1] = target: T1, SARS-CoV-2 nucleocapsid C-terminal domain (N-CTD) (SARS-CoV-2 (Wuhan-Hu-1), UniProt P0DTC9 248-364); experiment: EMSA; N-CTD:DNA molar ratios 2:1 to 10:1; conditions: protein: recombinant, tags: N-terminal His6 removed by TEV, residual Gly-Ala-Ser at N-terminus, chain copies: 2
# [2] = target: T1, SARS-CoV-2 nucleocapsid C-terminal …; experiment: EMSA; conditions: protein: recombinant; tags: N-terminal His6 removed by TEV; residual Gly-Ala-Ser at N-terminus; chain copies: 2
binder,measurement,setting,value
B1,binding result,[1]; blunt,binds
TGTTCTCTAAACGAACT (ssDNA) [17-mer ssDNA (DNA mimic of SL3/TRS RNA)],binding result,[1],binds
UGUUCUCUAAACGAACU (ssRNA) [17-mer ssRNA (5' UTR SL3/TRS)],binding result,[2],binds
